# Measurements from PMC11021269, “HspBP1 in Complex with the Peptide of the Innate Immunity Protein Tag7 is Able to Lyse Tumor Cells Carrying TNFR1 Receptor” (Doklady. Biochemistry and Biophysics, 2024).
# Experiments:
# [1] = test system: L929 cells (mouse fibroblasts) bearing the TNFR1 receptor; assay: Cytotoxicity on L929 cells (Cytotox kit, Promega); format: cell-based
# Experimental: L929 cells (mouse fibroblasts) were cultured in DMEM medium (PanEco, RA) supplemented with 10% fetal bovine serum (HyClone, United States). The culture was obtained from the bank of cell lines of the Blokhin Russian Cancer Research Center of the Russian Academy of Medical Sciences. To measure cytotoxicity, proteins and protein complexes were added to the L929 culture at a concentration of 1 nM, unless a different concentration was specified, and incubated for 3 or 20 h. Cytotoxicity was measured using a Cytotox kit (Promega, United States) according to the manufacturer’s method. To inhibit cytotoxicity, blocking antibodies to TNFR1 were used at a concentration of 10 μg/mL (Invitrogen, United States). Data from 5 different experiments are used.
# [2] = target: T1, HspBP1 (Homo sapiens, UniProt Q9NZL4); assay: Microscale thermophoresis, binding to Alexa Fluor 633-labeled HspBP1; details: labeled HspBP1 200 nM, 20 min incubation, room temperature, 16 concentrations, triplicate; read-out: dissociation constant of the complex with HspBP1, thermophoresis
# T1 construct: made in house
# T1 sequence (Q9NZL4 1-359): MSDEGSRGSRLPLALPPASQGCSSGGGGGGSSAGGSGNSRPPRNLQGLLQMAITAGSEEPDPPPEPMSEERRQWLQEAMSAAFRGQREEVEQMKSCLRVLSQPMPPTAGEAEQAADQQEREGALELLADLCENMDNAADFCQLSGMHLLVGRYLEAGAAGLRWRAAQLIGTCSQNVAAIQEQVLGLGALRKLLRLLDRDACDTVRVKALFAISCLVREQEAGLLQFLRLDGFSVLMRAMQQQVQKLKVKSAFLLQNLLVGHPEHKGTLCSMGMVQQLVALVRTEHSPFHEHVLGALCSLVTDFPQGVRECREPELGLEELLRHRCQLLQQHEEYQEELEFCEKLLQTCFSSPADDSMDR
# Experimental: Purified HspBP1 was fluorescently labeled using Alexa Fluor 633 (Eugene, OR, United States) according to the manufacturer’s instructions. HspBP1 (200 nM) was incubated for 20 min with each compound in the dark at room temperature at 16 different concentrations obtained by serial dilution starting with the highest soluble concentration. Samples were loaded into glass capillaries (Monolith NT Capillaries) and analyzed by thermophoresis using a Monolith NT 115 nanotemperature instrument (IR laser power 10%). The signal quality was monitored with a NanoTemper Monolith instrument to detect possible ligand autofluorescence, precipitation, aggregation, or ligand-induced changes in photobleaching rate. Experiments were performed in triplicate and processed using affinity analysis software (MO Control v.1.6.1, Nano-Temper).
# [3] = target: Hsp70; details: shown previously; read-out: dissociation constant for Hsp70; cited from earlier work
# Experimental: For 17.1–HspBP1, equal to 3.91 nM is also close to these values. […] It can be assumed that the lack of cytotoxic activity inTag7–HspBP1 is associated with its dissociation upon interaction with cells. Thus, a correlation between the affinity of protei ...
molecule,measurement,setting,value
Tag7–HspBP1 complex: complex of the Tag7 protein with the HspBP1 protein,cytotoxic activity (time not given),[1],does not have cytotoxic activity
same,cytotoxic activity after 3 h of incubation,"[1]; complexes at 1 nM, 3 h (apoptosis), 5 experiments",did not have cytotoxic activity
same,cytotoxic activity after 20 h of incubation,"[1]; complexes at 1 nM, 20 h (necroptosis), 5 experiments",did not have cytotoxic activity
"Tag7: innate immunity protein Tag7, a ligand for the TNFR1 receptor (protein, UniProt O75594 1-196, looked up, full-length, innate immunity protein Tag7, a ligand for the TNFR1 receptor) MSRRSMLLAWALPSLLRLGAAQETEDPACCSPIVPRNEWKALASECAQHLSLPLRYVVVSHTAGSSCNTPASCQQQARNVQHYHMKTLGWCDVGYNFLIGEDGLVYEGRGWNFTGAHSGHLWNPMSIGISFMGNYMDRVPTPQAIRAAQGLLACGVAQGALRSNYVLKGHRDVQRTLSPGNQLYHLIQNWPHYRSP",Kd,[2],328 nM
same,Kd,[3],1.73 nM
"HspBP1: recombinant co-chaperone that regulates the ATPase activity of Hsp70 (protein, UniProt Q9NZL4 1-359, looked up) Hsp70-binding protein 1: MSDEGSRGSRLPLALPPASQGCSSGGGGGGSSAGGSGNSRPPRNLQGLLQMAITAGSEEPDPPPEPMSEERRQWLQEAMSAAFRGQREEVEQMKSCLRVLSQPMPPTAGEAEQAADQQEREGALELLADLCENMDNAADFCQLSGMHLLVGRYLEAGAAGLRWRAAQLIGTCSQNVAAIQEQVLGLGALRKLLRLLDRDACDTVRVKALFAISCLVREQEAGLLQFLRLDGFSVLMRAMQQQVQKLKVKSAFLLQNLLVGHPEHKGTLCSMGMVQQLVALVRTEHSPFHEHVLGALCSLVTDFPQGVRECREPELGLEELLRHRCQLLQQHEEYQEELEFCEKLLQTCFSSPADDSMDR",effect on the cytotoxic activity of the Tag7–Hsp70 complex,"[1]; increasing concentration of HspBP1, Fig. 1a",inhibits the cytotoxic activity of the Tag7–Hsp70 complex in a dose-dependent manner
